Bridges are numbered along the chain shown (N, C = ends). Where no end group is shown, it is not given here.
T1: natriuretic peptide receptor -A (Homo sapiens)
T1 chain: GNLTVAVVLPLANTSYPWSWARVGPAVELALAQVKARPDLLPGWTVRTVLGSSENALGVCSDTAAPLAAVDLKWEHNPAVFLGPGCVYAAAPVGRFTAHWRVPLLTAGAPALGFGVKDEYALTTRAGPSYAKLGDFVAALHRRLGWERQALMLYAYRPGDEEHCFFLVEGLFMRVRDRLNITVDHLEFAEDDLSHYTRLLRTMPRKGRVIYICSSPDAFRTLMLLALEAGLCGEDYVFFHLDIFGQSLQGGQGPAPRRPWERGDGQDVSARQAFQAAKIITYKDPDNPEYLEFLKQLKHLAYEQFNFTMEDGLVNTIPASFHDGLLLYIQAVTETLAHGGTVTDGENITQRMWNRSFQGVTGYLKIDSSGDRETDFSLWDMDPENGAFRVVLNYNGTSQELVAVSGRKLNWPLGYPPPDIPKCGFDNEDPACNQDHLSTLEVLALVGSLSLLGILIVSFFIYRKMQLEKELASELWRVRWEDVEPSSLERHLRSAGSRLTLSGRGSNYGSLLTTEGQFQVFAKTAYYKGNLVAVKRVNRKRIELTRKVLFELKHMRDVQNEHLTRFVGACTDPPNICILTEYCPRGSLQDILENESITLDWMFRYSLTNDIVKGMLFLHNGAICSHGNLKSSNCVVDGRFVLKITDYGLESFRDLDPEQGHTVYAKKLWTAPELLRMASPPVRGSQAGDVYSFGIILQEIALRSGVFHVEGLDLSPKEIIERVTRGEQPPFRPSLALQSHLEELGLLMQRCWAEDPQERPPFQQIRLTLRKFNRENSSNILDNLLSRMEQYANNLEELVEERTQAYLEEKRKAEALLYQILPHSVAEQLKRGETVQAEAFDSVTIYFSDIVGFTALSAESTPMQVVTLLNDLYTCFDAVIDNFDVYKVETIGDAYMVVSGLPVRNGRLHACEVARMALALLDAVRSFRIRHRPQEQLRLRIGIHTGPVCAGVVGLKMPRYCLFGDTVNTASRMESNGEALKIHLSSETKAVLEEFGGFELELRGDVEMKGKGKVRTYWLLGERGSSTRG

T2: natriuretic peptide receptor -B (human)
T2 chain: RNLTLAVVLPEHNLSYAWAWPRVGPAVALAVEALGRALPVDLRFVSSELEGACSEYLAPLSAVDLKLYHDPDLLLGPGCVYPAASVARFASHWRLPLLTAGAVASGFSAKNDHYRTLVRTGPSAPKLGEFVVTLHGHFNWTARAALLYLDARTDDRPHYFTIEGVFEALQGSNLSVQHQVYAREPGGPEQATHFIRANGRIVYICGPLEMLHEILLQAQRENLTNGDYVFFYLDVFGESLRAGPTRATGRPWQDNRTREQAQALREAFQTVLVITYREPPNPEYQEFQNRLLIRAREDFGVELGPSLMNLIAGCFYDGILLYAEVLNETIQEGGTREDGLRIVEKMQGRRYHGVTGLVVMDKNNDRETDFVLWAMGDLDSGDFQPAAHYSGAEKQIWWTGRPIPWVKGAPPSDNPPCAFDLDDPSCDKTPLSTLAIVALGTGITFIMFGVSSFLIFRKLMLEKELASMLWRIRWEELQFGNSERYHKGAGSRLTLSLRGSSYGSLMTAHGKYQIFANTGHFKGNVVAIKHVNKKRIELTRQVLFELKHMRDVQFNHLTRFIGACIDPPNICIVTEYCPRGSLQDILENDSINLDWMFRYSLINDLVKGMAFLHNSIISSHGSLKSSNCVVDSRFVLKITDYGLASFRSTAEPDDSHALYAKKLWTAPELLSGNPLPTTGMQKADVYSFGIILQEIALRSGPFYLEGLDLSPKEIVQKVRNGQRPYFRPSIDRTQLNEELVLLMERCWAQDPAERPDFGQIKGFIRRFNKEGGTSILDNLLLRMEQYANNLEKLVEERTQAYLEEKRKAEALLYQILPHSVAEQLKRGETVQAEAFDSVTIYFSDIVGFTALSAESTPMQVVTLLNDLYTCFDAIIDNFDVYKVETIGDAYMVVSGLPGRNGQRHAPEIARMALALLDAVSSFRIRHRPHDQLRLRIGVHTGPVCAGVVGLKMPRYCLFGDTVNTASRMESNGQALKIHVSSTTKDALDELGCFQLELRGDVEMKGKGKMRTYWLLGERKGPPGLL


Assays:
[1] = molecular target: T1, natriuretic peptide receptor -A; experiment: cell-based or functional assay
[2] = molecular target: T2, natriuretic peptide receptor -B; experiment: cell-based or functional assay

cyclic GMP production in NPR-A transfected 293-T cells, EC50 [1] | cyclic GMP production in GTM-3 cells, EC50 [2] | cyclic GMP production in GTM-3 cells, Emax (maximum activation) [2] | Binder
1.6 µM | 0.0388 µM | 100% | GLSKGCFGLKLDRIGSMSGLGC (ligand, disulfide 6-22) [C-type natriuretic peptide]
 | 1.63 µM | 15% | SLRRSSCFGGRMDRIGAQSGLGCNSFRY (ligand, disulfide 7-23) [atrial natriuretic peptide]
1.54 µM | > 45 µM | 0% | MCHFGGRMDRISCYR [mini-ANP]

Source: patent publication US20160194357A1, “Novel NPR-B Agonists” (published 2016)
